The source of these data is patent US20070004909A1 (MacroGenics, published 2007).

For experiment [1], the target named is T1, soluble CD16A (sCD16A) (UniProt P08637 17-208, limits assumed).
T1 construct: extracellular domain; Amine-coupled to the chip in SPR; biotin- or HRP-conjugated as the probe in the sandwich ELISAs; also called FcγRIIIA; sCD16A-Biotin
Put plainly: sandwich ELISA: sCD32B coated on the plate (figure legend), purified diabody diluted 1:25 to 1:100, HRP-conjugated sCD16A as the probe; OD450.

In the next experiment the target is T2, soluble CD32A (sCD32A) (UniProt P12318 34-217, limits assumed).
T2 construct: extracellular domain; Negative control surface in SPR; also called control receptor
T2 sequence (looked up): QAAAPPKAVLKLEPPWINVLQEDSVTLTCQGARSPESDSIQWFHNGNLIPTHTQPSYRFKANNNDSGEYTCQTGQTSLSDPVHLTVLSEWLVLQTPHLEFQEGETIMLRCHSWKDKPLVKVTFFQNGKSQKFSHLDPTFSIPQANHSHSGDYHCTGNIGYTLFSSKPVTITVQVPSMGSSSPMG
Put plainly: SPR (BIAcore), sCD32A (negative control receptor) immobilised, diabody injected for 60 s. On the procedure: The binding of h2B6-h3G8 CBD, h2B6 CMD and h3G8 CMD to sCD16A, sCD32B, and sCD32A (negative control) was assayed by SPR analysis. h3G8 scFv was also tested as a control. (A) Binding to sCD16; (B) Binding to sCD32B and (C) Binding to sCD32A. Diabodies were injected at a concentration of 100 NM, and scFv at a concentration of 200 nM, over receptor surfaces at a flow rate of […] for 60 sec.
On the technique in general: Surface plasmon resonance follows binding to a sensor surface in real time, without labels.

The target in another experiment is T3, sCD32B-Ig (UniProt P31994 43-217).
T3 construct: extracellular domain; also called CD32B (ELISA coat); sCD32B (target protein of the sandwich ELISAs); not shown: Ig part of sCD32B-Ig is not described
T3 sequence (looked up): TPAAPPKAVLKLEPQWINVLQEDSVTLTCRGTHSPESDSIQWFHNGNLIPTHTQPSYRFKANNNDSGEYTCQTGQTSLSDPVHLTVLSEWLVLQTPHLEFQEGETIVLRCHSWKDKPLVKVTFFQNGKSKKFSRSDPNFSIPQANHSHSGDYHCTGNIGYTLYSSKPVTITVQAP
Put plainly: sandwich ELISA: sCD32B-Ig coated on the plate, diabody titrated, detected with labelled sCD16A; OD450. Here is the method: The binding of h2B6-h3G8 CBD to sCD32B and sCD16A was assayed in a sandwich ELISA. sCD32B was used as the target protein. The secondary probe was HRP conjugated sCD16A. h3G8 CMD, which binds CD16A, was used as control.
ELISA: The binding of eluted and purified diabodies was characterized by ELISA assay, as described in 5.4.2. 50 ul/well of a 2 ug/ml solution of sCD32B-Ig was coated on 96-well Maxisorp plate in Carbonate buffer at 4° C. over night. The plate was washed three times with PBS-T (PBS, 0.1% Tween 20) and blocked by 0.5% BSA in PBS-T for 30 minutes at room temperature. Subsequently, h2B6-h3G8 CBD, h2B6 CMD, or h3G8 CMD were diluted into the blocking buffer in a serial of two-fold dilutions to generate a range of diabody concentrations, from 0.5 μg/ml to 0.001 μg/ml. The plate was then incubated at room temperature for 1 hour. After washing with PBS-T three times, 50 ul/well of 0.2 ug/ml sCD16A-Biotin was added to each well. The plate was again incubated at room temperature for 1 hour. After washing with PBS-T three times, 50 ul/well of a 1:5000 dilution of HRP conjugated streptavidin (Amersham Pharmacia Biotech) was used for detection. The HRP-streptavidin was allowed to incubate for 45 minutes at room temperature. […] The OD450 nm was read by using a 96-well plate reader and SOFTmax software, and results plotted using GraphPadPrism 3.03 software. […]
A general note: ELISA stands for enzyme-linked immunosorbent assay.

For experiment [2], the target named is T1, soluble CD16A (sCD16A). In words: SPR (BIAcore 1000); receptor amine-coupled (~1000 RU), analyte 6.25-200 nM; units not printed (koff/kon implies nM). Here is the method:
(§1) The binding of h2B6-h3G8 CBD, h2B6 CMD and h3G8 CMD to sCD16A, and sCD32B was assayed by SPR analysis. h3G8 scFv was also tested as a control. (A) Binding of to h3G8 CMD sCD16A; (B) Binding of h2B6-h3G8 CBD to sCD16A; (C) Binding of h3G8 scFv to sCD16A; (D) Binding of h2B6 CMD to sCD32B; and (E) Binding of h2B6-h3G8 CBD to sCD32B. Diabodies were injected at concentrations of 6.25-200 nM over receptor surfaces at a flow rate of […] for 180 sec.
(§2) SPR analysis was also used to estimate the kinetic and equilibrium constants of the CMDs and h2B6-h3G8 CBD to sCD16 and/or sCD32B. Results were compared to the same constants calculated for an h3G8 scFV. FIGS. 7A-E show the graphical results of the SPR analysis. The kinetic on and off rates, as well as the equilibrium constant, calculated from the results depicted in FIG. 7 are provided in Table 13.

A further experiment addresses T4, soluble CD32B (sCD32B) (UniProt P31994 43-217, limits assumed).
T4 construct: extracellular domain; As immobilised on the BIAcore chip; also called FcγRIIB
T4 sequence (looked up): T3 sequence (looked up)
The description is as above. On the procedure: as §1, §2

In experiment [3] the target is T1, soluble CD16A (sCD16A). In words: sandwich ELISA: sCD32B coated on the plate, normalised conditioned medium titrated, HRP-conjugated sCD16A as the probe; OD450. Here is the method: The binding of diabody molecules comprising Fc domains to sCD32B and sCD16A was assayed in a sandwich ELISA. Diabodies assayed were produced by 4 recombinant expression systems: cotransfection of pMGX669+pMGX674, expressing constructs 1 and 6, respectively; cotransfection of pMGX669+pMGX678, expressing constructs 2 and 8, respectively; cotransfection of pMGX677+pMGX674, expressing constructs 7 and 6, respectively; and cotransfection of pMGX677+pMGX678, expressing constructs 7 and 8, respectively. sCD32B was used as the target protein. The secondary probe was HRP conjugated sCD16A.
ELISA: The binding of diabody molecules secreted into the medium was assayed by sandwich ELISA as described, supra. Unless indicated, CD32B was used to coat the plate, i.e., as the target protein, and HRP-conjugated CD16 was used as the probe.

The target of experiment [4] is T1, soluble CD16A (sCD16A). Put plainly: sandwich ELISA: mCD32B coated on the plate, diabody preparation diluted 1:25 and 1:50, biotin-conjugated sCD16A as the probe; OD450. Here is the method: (§3) The binding of diabody molecules derived from the polyprotein precursor molecule construct 13 (SEQ ID NO:97) to murine CD32B (mCD32B) and soluble CD16A (sCD16A) was assayed in a sandwich ELISA. mCD32B was used as the target protein. The secondary probe was biotin conjugated sCD16A.
(§4) ELISA: The binding of diabody molecules secreted into the medium was assayed by sandwich ELISA as described, supra. Murine CD32B was used to coat the plate, i.e., as the target protein, and HRP-conjugated CD16A was used as the probe for the product of the co-transfection of constructs 15 and 16. mCD32B was used as the target protein and biotin-conjugated CD16A was used as the probe for the recombinant system comprising construct 13.
(§5) Conditioned media from the recombinant expression systems comprising constructs 13 was analysed by sandwich ELISA. The ELISA assay tested the binding of the CBD for specificity to either or both of mCD32B and/or CD16 (FIG. 18). CD32B served as the target antigen and CD16A was used as the secondary probe.

In a further experiment the target is T5, murine CD32B (mCD32B) (murine, UniProt P08101 30-210, limits assumed).
T5 construct: Coating protein of the sandwich ELISA for the construct 13 product
T5 sequence (looked up): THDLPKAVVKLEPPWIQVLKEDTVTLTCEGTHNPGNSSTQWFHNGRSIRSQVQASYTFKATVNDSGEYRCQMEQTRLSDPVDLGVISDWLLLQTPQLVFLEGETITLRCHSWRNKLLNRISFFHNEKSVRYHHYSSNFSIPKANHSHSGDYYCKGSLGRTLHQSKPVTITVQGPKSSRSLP
The description is as above. Here is the method: as §3, §4, §5

By EC50 (read off the curve) is commonly meant the concentration needed to bring the measured effect to its halfway point. As a reminder, the Kd is the equilibrium constant for the complex coming apart. A high value points to weaker binding.

T1 sequence (P08637 17-208 limits assumed): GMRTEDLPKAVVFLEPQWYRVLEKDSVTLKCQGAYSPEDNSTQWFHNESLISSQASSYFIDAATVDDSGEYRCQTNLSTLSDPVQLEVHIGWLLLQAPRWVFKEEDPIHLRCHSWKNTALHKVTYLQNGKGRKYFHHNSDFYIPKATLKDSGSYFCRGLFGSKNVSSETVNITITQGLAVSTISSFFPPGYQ

B1: covalent bispecific diabody of constructs 15 and 16 (pMGX0752+pMGX0753) (bispecific antibody)
chain 1: EIVLTQSPDFQSVTPKEKVTFTCRTSQSIGTNIHWYQQKPDQSPKLLIKEVSESISGVPSRFSGSGSGTDFTLTINSLEAEDAATYYCQQSNTWPFTFGGGTKVEIKGGGSGGGGQVTLRESGPALVKPTQTLTLTCTFSGFSLSTSGMGVGWIRQPPGKALEWLAHIWWDDDKRYNPALKSRLTISKDTSKNQVVLTMTNMDPVDTATYYCAQINPAWFAYWGQGTLVTVSSFNRGEC
chain 2: DIVMTQSPDSLAVSLGERATINCKASQSVDFDGDSFMNWYQQKPGQPPKLLIYTTSNLESGVPDRFSGSGSGTDFTLTISSLQAEDVAVYYCQQSNEDPYTFGQGTKLEIKGGGSGGGGQVQLVQSGAEVKKPGASVKVSCKASGYTFTNYWIHWVRQAPGQGLEWIGVIDPSDTYPNYNKKFKGRVTMTVVVSTSTAYMELRSLRSDDTAVYYCARNGDSDYYSGMDYWGQGTTVTVSSVEPKSC
notes: Construct 15 = Hu2B6VL-Hu3G8VH-FNRGEC; construct 16 = Hu3G8VL-Hu2B6VH-VEPKSC; also called construct 15/16 combination
On to B1, for which the binding result with soluble CD16A (sCD16A) [1] was “binds”.

B2: h2B6-h3G8 covalent bispecific diabody (CBD) (bispecific antibody)
chain 1: EIVLTQSPDFQSVTPKEKVTFTCRTSQSIGTNIHWYQQKPDQSPKLLIKEVSESISGVPSRFSGSGSGTDFTLTINSLEAEDAATYYCQQSNTWPFTFGGGTKVEIKGGGSGGGGQVTLRESGPALVKPTQTLTLTCTFSGFSLSTSGMGVGWIRQPPGKALEWLAHIWWDDDKRYNPALKSRLTISKDTSKNQVVLTMTNMDPVDTATYYCAQINPAWFAYWGQGTLVTVSSLGGC
chain 2: DIVMTQSPDSLAVSLGERATINCKASQSVDFDGDSFMNWYQQKPGQPPKLLIYTTSNLESGVPDRFSGSGSGTDFTLTISSLQAEDVAVYYCQQSNEDPYTFGQGTKLEIKGGGSGGGGQVQLVQSGAEVKKPGASVKVSCKASGYTFTNYWIHWVRQAPGQGLEWIGVIDPSDTYPNYNKKFKGRVTMTVVVSTSTAYMELRSLRSDDTAVYYCARNGDSDYYSGMDYWGQGTTVTVSSLGGC
notes: also called h2B6-h3G8 CBD; h2B6-h3G8 diabody
On to B2, for which the binding result in the experiment with soluble CD32A (sCD32A) is “no binding (tested: 100 nM)”. The “EC50 (read off the curve)” value in the experiment with sCD32B-Ig is about 0.04 µg/mL. The values for the Kd with soluble CD16A (sCD16A) [2] and with soluble CD32B (sCD32B) were 22.7 nM and 15 nM, respectively.

B3: tetrameric IgG-like diabody of constructs 7 and 8 (pMGX0677+pMGX0678) (bispecific antibody)
chain 1: EIVLTQSPDFQSVTPKEKVTFTCRTSQSIGTNIHWYQQKPDQSPKLLIKEVSESISGVPSRFSGSGSGTDFTLTINSLEAEDAATYYCQQSNTWPFTFGGGTKVEIKGGGSGGGGQVTLRESGPALVKPTQTLTLTCTFSGFSLSTSGMGVGWIRQPPGKALEWLAHIWWDDDKRYNPALKSRLTISKDTSKNQVVLTMTNMDPVDTATYYCAQINPAWFAYWGQGTLVTVSSLGGCFNRGEC
chain 2: not shown
notes: heavier chain construct 8 (hu3G8VL-hu2B6VH-LGGC-hinge/Fc of human IgG1, A215V); Tested as normalized conditioned medium
Turning to B3, the binding result with soluble CD16A (sCD16A) [3] was “binds”.

B4: h2.4G2-h3G8 CBD produced from the polyprotein precursor construct 13 (bispecific antibody)
chain 1: DTVLTQSPASLAVSLGQRATISCKASQSVDFDGDSFMNWYQQKPGQPPKLLIYTTSNLESGIPARFSASGSGTDFTLNIHPVEEEDTATYYCQQSNEDPYTFGGGTKLEIKGGGSGGGGEVELVESGGGLVQPGRSLKLSCAASGFTFSDYYMAWVRQAPTTGLEWVASISYDGGDTHYRDSVKGRFTISRDNAKSSLYLQMDSLRSEDTATYYCATETTGIPTGVMDAWGQGVSVTVSSLGGCGGRAKR
chain 2: DVQMTQSPSNLAASPGESVSINCKASESISKYLAWYLQKPGKANKLLMYDGSTLQSGIPSRFSGSGSGTDFTLTIRSLEPEDFGLYYCQQHYEYPATFGSGTKLEIKGGGSGGGGQVTLKESGPGILQPSQTLSLTCSFSGFSLRTSGMGVGWIRQPSGKGLEWLAHIWWDDDKRYNPALKSRLTISKDTSSNQVFLKIASVDTADTATYYCAQINPAWFAYWGQGTLVTVSSLGGC
modifications: Interchain disulfide between the cysteines of the two LGGC sequences.
notes: In the assay it is the heterodimer of the two chains made by furin cleavage; also called pMGX0750 product; diabody molecules derived from the polyprotein precursor; copies: 1 + 1
In the case of B4, the binding result with soluble CD16A (sCD16A) [4] and with murine CD32B (mCD32B) was “binds” each time.
